Substitutions are numbered along the chain they refer to. Numbers in names are those of the source.

B1: Recombinant wild-type L-chain ferritin from horse spleen (natural protein, UniProt P02791 1-175, looked up)
chain: MSSQIRQNYSTEVEAAVNRLVNLYLRASYTYLSLGFYFDRDDVALEGVCHFFRELAEEKREGAERLLKMQNQRGGRALFQDLQKPSQDEWGTTLDAMKAAIVLEKSLNQALLDLHALGSAQADPHLCDFLESHFLDEEVKLIKKMGDHLTNIQRLVGSQAGLGEYLFERLTLKHD
B2: Fr-A115V (natural protein, horse, UniProt P02791 1-175, looked up)
chain: B1 chain with A116V
B3: Fr-A115T (natural protein, horse, UniProt P02791 1-175, looked up)
chain: B1 chain with A116T
B4: Fr-S118A (natural protein, horse, UniProt P02791 1-175, looked up)
chain: B1 chain with S119A
B5: Fr-A115G (natural protein, horse, UniProt P02791 1-175, looked up)
chain: B1 chain with A116G
B6: Fr-H114A (natural protein, horse, UniProt P02791 1-175, looked up)
chain: B1 chain with H115A

The data set deals with the molecule itself. The data set is described as follows: crystal structure.
By stoichiometry N is commonly meant the number of molecules, sites or subunits per partner or assembly. With B1, the “stoichiometry N” value is 24.

In the case of B2, the binding result was “binds”. Consider B3, for which the binding result was “binds”. As to B4, the binding result is on record as “binds”.

Consider B5, for which the binding result was “binds”. For the protein B6, the binding result is listed as “binds”.

Values taken from article doi:10.1101/2023.06.21.546005 (bioRxiv, 2023).
